# From PMC11964753 (Molecules and Cells, 2025)
# “And” between values parts separate entries of the source, which are not always exact repeats. Equal values may be shown once.
# Target: the molecule itself
# Experiment: cryo-EM structure
protein,measurement,value
"mouse bestrophin 1 with a C-terminal tandem tag of BRIL and 3X Flag (mBEST1-BRIL-3xFLAG) (natural protein, UniProt O88870 1-551, looked up) MTITYTNKVANARLGSFSSLLLCWRGSIYKLLYGEFLVFIFLYYSIRGLYRMVLSSDQQLLFEKLALYCDSYIQLIPISFVLGFYVTLVVSRWWSQYENLPWPDRLMIQVSSFVEGKDEEGRLLRRTLIRYAILGQVLILRSISTSVYKRFPTLHHLVLAGFMTHGEHKQLQKLGLPHNTFWVPWVWFANLSMKAYLGGRIRDTVLLQSLMNEVCTLRTQCGQLYAYDWISIPLVYTQVVTVAVYSFFLACLIGRQFLNPNKDYPGHEMDLVVPVFTILQFLFYMGWLKVAEQLINPFGEDDDDFETNWIIDRNLQVSLLSVDGMHQNLPPMERDMYWNEAAPQPPYTAASARSRRHSFMGSTFNISLKKEDLELWSKEEADTDKKESGYSSTIGCFLGLQPKNYHLPLKDLKTKLLCSKNPLLEGQCKDANQKNQKDVWKFKGLDFLKCVPRFKRRGSHCGPQAPSSHPTEQSAPSSSDTGDGPSTDYQEICHMKKKTVEFNLNIPESPTEHLQQRRLDQMSTNIQALMKEHAESYPYRDEAGTKPVLYE",stoichiometry N,5 and 10
